# Data published in patent CN114790245A (CHENGDU KANGHONG BIOLOGICAL TECH CO LTD, dated 2022).
# Where a chain is given by its changes, count along the chain named.
# B1: KH01 (antibody, human IgG4 S228P, kappa, V domains shown)
# VH: EVQLHQSGAELVKPGASVRLSCTASGFNIKDTYIFWVKQRPEQGLEWIGRIDPENDNTKFDPKIQGKATLTADTSSNTAYLQLGSLTSEDSAIYYCAKGGGLFAYWGQGTLVSVSA
# VL: DIQMTQSPSSLSASLGGKVTITCKASHDINKYIAWYQHKPGSGPRLLIHFTSTLQSDIPSRFSGSGSGRDYSFSISNLEPEDIATYYCLQYDNLFTFGGGTKLEIKR
# B2: KH19 (antibody, V domains shown)
# VH: EVQLQQSGAEVVRPGASVKLSCKPSGFNIKDYYMFWLRQRPDQGLEWIGRIDPENGNTVYDPRFQDRASITAVTSSNTAFLQVNSLTSEDTAVYYCARAGSIPSYWGQGTLVTVSA
# VL: DIQMTQSPSSLSASLGDKITITCKASQDINKYIAWYQHKPGKGPRLLIHYTSSLHQDIPSRFSGSGSGRDYSFSISNLEPEDFAIYYCLQYDDLWTFGGGTKVEIK
# B3: KH20 (antibody, V domains shown)
# VH: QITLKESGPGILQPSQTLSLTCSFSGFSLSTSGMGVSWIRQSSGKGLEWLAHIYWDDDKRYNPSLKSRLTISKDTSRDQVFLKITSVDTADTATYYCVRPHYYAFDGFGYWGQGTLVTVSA
# VL: DIKMTQSPSSMSASPGERVTITCKASQDINSYLSWFQQKSGKFPKTLIYRANRLVDGVASRFSGSGSGQDYSLTISSLDYEDMGIYYCVQYDEFPLTFGAGTKLELK
# B4: KH21 (antibody, V domains shown)
# VH: EVQLQQSGAELVKPGASVKLSCTGSGFNIKDIYMFWVKQRPEQGLEWIGRIDPENGNIKYDPKFQGKATITAETSSNTVYLQLNSLTSEDTAVYYCSRGGGLFAYWGQGTLVTVSA
# VL: DIQMTQSPSSLSASLGGKVTITCKASQDINKYIAWYQHKPGKGPRLLIHYTSTLQPGIPSRFSGSGSGSDYSFSISTLEPEDIATYYCLQYDDLWTFGGGTKLEIK
# B5: KH02 (antibody, human IgG4 S228P, kappa, V domains shown)
# VH: B1 VH with H5Q, E42K, F60Y, G84S
# VL: B1 VL with A13T, K24E, K31N, S42K, F50Y, D57G, R69K
# B6: KH11 (antibody, human IgG4 S228P, kappa)
# heavy: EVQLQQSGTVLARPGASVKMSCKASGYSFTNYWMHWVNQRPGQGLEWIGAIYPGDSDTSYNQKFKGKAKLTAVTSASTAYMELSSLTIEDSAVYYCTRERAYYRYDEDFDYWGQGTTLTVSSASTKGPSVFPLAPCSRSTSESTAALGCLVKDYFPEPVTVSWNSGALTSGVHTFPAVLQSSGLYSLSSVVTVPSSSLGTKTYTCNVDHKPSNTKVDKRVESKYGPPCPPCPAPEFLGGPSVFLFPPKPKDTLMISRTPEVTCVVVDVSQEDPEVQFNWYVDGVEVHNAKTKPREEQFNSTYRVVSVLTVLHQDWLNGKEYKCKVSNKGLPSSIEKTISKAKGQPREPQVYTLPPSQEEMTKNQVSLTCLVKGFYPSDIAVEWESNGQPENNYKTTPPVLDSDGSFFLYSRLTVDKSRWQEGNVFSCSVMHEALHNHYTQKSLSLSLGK
# light: EIVLTQSPTTMAASPGEKITITCSATSIINSNYFHWYQQKPGFSPKLLIYRTSNLASGVPARFSGSGSGTSYSLTIGTMEAEDVATYYCQQGSSLPRTFGGGTKLEIKRTVAAPSVFIFPPSDEQLKSGTASVVCLLNNFYPREAKVQWKVDNALQSGNSQESVTEQDSKDSTYSLSSTLTLSKADYEKHKVYACEVTHQGLSSPVTKSFNRGEC
# B7: KH10 (antibody, human IgG1, kappa)
# heavy: not shown
# light: B6 light
# B8: KH12 (antibody, human IgG1, kappa, V domains shown)
# VH: QVQLVQSGAEVKKPGASVKVSCKASGYTFTNYWMHWVRQAPGQGLEWMGAIYPGDSDTSYNQKFKGRVTMTRDTSTSTVYMELSSLRSEDTAVYYCARERAYYRYDEDFDYWGQGTLVTVSS
# VL: EIVMTQSPPTLSLSPGERVTLSCSATSIINSNYFHWYQQKPGQAPRLLIYRTSNLASGIPARFSGSGSGTDFTLTISSLQPEDFAVYYCQQGSSLPRTFGGGTKLEIKR
# B9: KH13 (antibody, human IgG1, kappa, V domains shown)
# VH: B8 VH
# VL: DIQMTQSPSSLSASVGDRVTITCSATSIINSNYFHWYQQKPGKAPKLLIYRTSNLASGVPSRFSGSGSGTDFTFTISSLQPEDIATYYCQQGSSLPRTFGGGTKLEIKR
# B10: KH14 (antibody, human IgG1, kappa, V domains shown)
# VH: B8 VH
# VL: EIVLTQSPAIMSASPGERVTMTCSATSIINSNYFHWYQQKPGTSPRRWIYRTSNLASGVPARFSGSGSGTDYSLTISSMEPEDAATYYCQQGSSLPRTFGGGTKLEIKR
# B11: KH15 (antibody, human IgG4 S228P, kappa, V domains shown)
# VH: EVQLVQSGAEVKKPGATVKISCKVSGYTFTNYWMHWVQQAPGKGLEWMGAIYPGDSDTSYNQKFKGRVTITADTSTDTAYMELSSLRSEDTAVYYCTRERAYYRYDEDFDYWGQGTLVTVSS
# VL: B8 VL
# B12: KH16 (antibody, human IgG4 S228P, kappa, V domains shown)
# VH: B11 VH
# VL: B9 VL
# B13: KH03 (antibody, human IgG4 S228P, kappa)
# heavy: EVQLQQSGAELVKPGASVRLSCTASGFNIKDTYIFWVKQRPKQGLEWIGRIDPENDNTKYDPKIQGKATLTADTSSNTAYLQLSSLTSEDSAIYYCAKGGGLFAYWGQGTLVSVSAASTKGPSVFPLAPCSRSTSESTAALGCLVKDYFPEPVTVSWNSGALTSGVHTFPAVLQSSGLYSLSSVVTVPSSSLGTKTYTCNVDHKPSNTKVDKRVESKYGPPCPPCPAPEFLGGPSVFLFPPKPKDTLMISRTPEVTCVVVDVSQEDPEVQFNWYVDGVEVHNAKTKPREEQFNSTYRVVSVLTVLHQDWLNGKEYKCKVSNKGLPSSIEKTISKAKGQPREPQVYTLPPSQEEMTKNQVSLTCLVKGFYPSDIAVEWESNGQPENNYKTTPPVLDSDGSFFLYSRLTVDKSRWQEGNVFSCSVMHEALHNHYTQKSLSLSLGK
# light: DIQMTQSPSAMSASVGDRVTITCEASHDINNYIAWYQQKPGKAPKLLIYYTSTLQSGVPSRFSGSGSGTEFTLTISNLQPEDFATYYCLQYDNLFTFGQGTKVEIKRTVAAPSVFIFPPSDEQLKSGTASVVCLLNNFYPREAKVQWKVDNALQSGNSQESVTEQDSKDSTYSLSSTLTLSKADYEKHKVYACEVTHQGLSSPVTKSFNRGEC
# B14: KH04 (antibody, human IgG4 S228P, kappa)
# heavy: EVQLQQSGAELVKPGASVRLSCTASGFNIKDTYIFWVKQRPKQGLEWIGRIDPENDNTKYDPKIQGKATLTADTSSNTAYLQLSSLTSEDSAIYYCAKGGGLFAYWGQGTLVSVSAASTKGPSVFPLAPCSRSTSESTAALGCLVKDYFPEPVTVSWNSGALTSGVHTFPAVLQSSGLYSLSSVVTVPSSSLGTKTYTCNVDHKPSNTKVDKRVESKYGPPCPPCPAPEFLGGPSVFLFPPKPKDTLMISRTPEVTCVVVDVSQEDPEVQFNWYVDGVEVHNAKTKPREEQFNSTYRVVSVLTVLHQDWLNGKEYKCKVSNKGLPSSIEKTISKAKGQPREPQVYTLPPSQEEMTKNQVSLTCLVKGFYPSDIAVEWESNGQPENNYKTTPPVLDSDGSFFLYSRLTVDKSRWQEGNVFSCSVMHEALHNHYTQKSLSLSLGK
# light: B13 light with A10S, M11L
# B15: KH05 (antibody, human IgG4 S228P, kappa, V domains shown)
# VH: B1 VH with H5Q, E42K, F60Y, G84S
# VL: DIQMTQSPSSLSASVGDRVTITCEASHDINNYIAWYQQKPGQPPKLLIYYTSTLQSGVPSRFSGSGSGTEFTLTISNLQPEDFATYYCLQYDNLFTFGQGTKVEIKR
# B16: KH07 (antibody, human IgG4 S228P, kappa, V domains shown)
# VH: B1 VH with H5Q, E42K, F60Y, G84S
# VL: B15 VL with S10A, L11M, E70D, L73F, N77S, F83I
# B17: KH09 (antibody, human IgG4 S228P, kappa, V domains shown)
# VH: EVQLVESGGALVKPGGSLRLSCAASGFNIKDTYIFWVRQMPRKGLEWIGRIDPENDNTKYDPKIQGKATITADTSTDTAYMELSSLTSEDTAVYYCAKGGGLFAYWGQGTLVTVSS
# VL: B15 VL with S10A, L11M, Q42K, P43A, E70D, L73F, N77S, F83I
# B18: KH18 (antibody, human IgG4 S228P, kappa, V domains shown)
# VH: QVQLLESGAELVRPGSSVKISCKASGYAFTNYWMHWVKQRPGQGLEWIGAIYPGDSDTSYNQKFKGKATLTADESSSTAYMQLSSLRSEDSAVYSCARERAYYRYDEDFDYWGQGTTVTVSS
# VL: B9 VL
# Target: T1, 血浆激肽释放酶(plasma kallikrein,PK) (human, UniProt P03952 20-638)
# T1 sequence (P03952 20-638 limits assumed): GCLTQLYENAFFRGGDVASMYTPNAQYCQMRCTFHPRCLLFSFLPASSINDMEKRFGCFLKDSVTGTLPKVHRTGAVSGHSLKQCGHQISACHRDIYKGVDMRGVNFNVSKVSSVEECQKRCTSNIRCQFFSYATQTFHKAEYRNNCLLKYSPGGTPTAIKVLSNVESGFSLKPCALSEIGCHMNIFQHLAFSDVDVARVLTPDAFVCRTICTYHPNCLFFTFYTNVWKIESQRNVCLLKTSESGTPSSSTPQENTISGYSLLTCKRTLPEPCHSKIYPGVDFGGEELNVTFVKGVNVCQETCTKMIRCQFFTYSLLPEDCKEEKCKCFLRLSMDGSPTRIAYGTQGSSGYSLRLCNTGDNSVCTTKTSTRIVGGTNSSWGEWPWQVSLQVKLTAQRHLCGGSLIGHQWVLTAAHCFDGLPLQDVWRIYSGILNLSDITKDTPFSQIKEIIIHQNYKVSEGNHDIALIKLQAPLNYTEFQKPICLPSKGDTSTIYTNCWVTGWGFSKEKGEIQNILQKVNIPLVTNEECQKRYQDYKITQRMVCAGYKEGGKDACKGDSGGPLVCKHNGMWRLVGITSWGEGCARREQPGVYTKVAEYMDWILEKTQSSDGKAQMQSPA
# Test: cell-based or functional assay
row,Binder,"IC50(nM), PK enzyme activity on H-Pro-Phe-Arg-AMC (fluorescence)"
1,B1,0.297 nM
2,B2,0.87 nM
3,B3,1.1 nM
4,B4,0.82 nM
5,B5,0.235 nM
6,B6,0.188 nM
7,B7,0.227 nM
8,B8,0.174 nM
9,B9,0.221 nM
10,B10,0.398 nM
11,B11,0.224 nM
12,B12,0.23 nM

# Target: T1, 血浆激肽释放酶(plasma kallikrein,PK)
# Test: cell-based or functional assay
# Remark: another data set of the same source
row,Binder,"IC50(nM), PK activity in human plasma activated with Factor XIIa (H-Pro-Phe-Arg-AMC)"
1,B1,0.753 nM
2,B2,0.93 nM
3,B3,1.09 nM
4,B4,1.29 nM
5,B5,0.52 nM
6,B13,0.949 nM
7,B14,0.987 nM
8,B15,0.921 nM
9,B16,0.863 nM
10,B17,0.764 nM
11,B6,0.103 nM
12,B18,0.419 nM
